According to patent US11278600B2, “Human alpha-galactosidase variants” (Codexis, Inc., priority 2014, dated 2022):
Residue numbers refer to the chain shown, from its start.

B1: 521 (protein)
chain: LDNGLARTPTMGWLHWERFMCNLDCQEEPDSCISEKLFMEMAERMVSEGWKNAGYEYLCIDDCWMAPQRDSEGRLQADPQRFPHGIRQLANHVHSKGLKLGIYADVGNKTCAGFPGSFGYYDIDAQTFADWGVDLLKFDGCYCDSLENLADGYKHMSLALNRTGRSIVYSCEWPLYMWPFQKPNYTEIRQYCNHWRNFADIDDSWASIKSILDWTSRNQERIVDVAGPGGWNDPDMLVIGNFGLSWDQQVTQMALWAIMAAPLFMSNDLRHISPQAKALLQDKDVIAINQDPLGKQGYQLRKGDNFEVWERPLSGDAWAVAIINRQEIGGPRSYTIPVASLGKGVACNPACFITQLLPVKRQLGFYNWTSRLKSHINPTGTVLLQLENTMQMSLKDLL
modifications: Synthetic Polypeptide sequence of Variant No. 521 of mature Human GLA
B2: 595 (protein)
chain: B1 chain with N52D, T186A
modifications: Synthetic Polypeptide sequence of Variant No. 595 of mature Human GLA
B3: 600 (protein)
chain: B1 chain with N52D, Y120S, L341F
modifications: Synthetic Polypeptide sequence of Variant No. 600 of mature Human GLA
B4: 598 (protein)
chain: B1 chain with N52D, Y120H
modifications: Synthetic Polypeptide sequence of Variant No. 598 of mature Human GLA
B5: 594 (protein)
chain: B1 chain with N52D, S95E
modifications: Synthetic Polypeptide sequence of Variant No. 594 of mature Human GLA
B6: 603 (protein)
chain: B1 chain with M39R, N52D
modifications: Synthetic Polypeptide sequence of Variant No. 603 of mature Human GLA
B7: 599 (protein)
chain: B1 chain with N52D, Y120S
modifications: Synthetic Polypeptide sequence of Variant No. 599 of mature Human GLA
B8: 602 (protein)
chain: B1 chain with M39E, N52D
modifications: Synthetic Polypeptide sequence of Variant No. 602 of mature Human GLA
B9: 596 (protein)
chain: B1 chain with N52D, T186G
modifications: Synthetic Polypeptide sequence of Variant No. 596 of mature Human GLA
B10: 597 (protein)
chain: B1 chain with N52D, T186V
modifications: Synthetic Polypeptide sequence of Variant No. 597 of mature Human GLA
B11: 601 (protein)
chain: B1 chain with M39C, N52D
modifications: Synthetic Polypeptide sequence of Variant No. 601 of mature Human GLA

Assay: HTP-analysis of yeast culture supernatants, no challenge (MUGal hydrolysis)
Type: biochemical
Settings: activity of the variant/activity of Rd3BB (SEQ ID NO: 13)
In short: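 Activity read as 4-methylumbelliferyl α-D-galactopyranoside hydrolysis: fluorescence (355/448 nm) after sodium carbonate stop, following 30-180 min at 37° C with 2 mM MUGal stock at pH 4.6–4.8. Enzyme source is unchallenged culture supernatant of INVSc1 yeast expressing GLA variants, grown 66-84 h at 30° C.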

Molecule	Relative Activity of GLA Variants After No Challenge (NC)
B1	+ (+ = 1.5 to 5 relative activity over Rd3BB (SEQ ID NO: 13))
B2	+ (+ = 1.5 to 5 relative activity over Rd3BB (SEQ ID NO: 13))
B3	+ (+ = 1.5 to 5 relative activity over Rd3BB (SEQ ID NO: 13))
B4	+ (+ = 1.5 to 5 relative activity over Rd3BB (SEQ ID NO: 13))
B5	+ (+ = 1.5 to 5 relative activity over Rd3BB (SEQ ID NO: 13))
B6	+ (+ = 1.5 to 5 relative activity over Rd3BB (SEQ ID NO: 13))
B7	+ (+ = 1.5 to 5 relative activity over Rd3BB (SEQ ID NO: 13))
B8	+ (+ = 1.5 to 5 relative activity over Rd3BB (SEQ ID NO: 13))
B9	+ (+ = 1.5 to 5 relative activity over Rd3BB (SEQ ID NO: 13))
B10	+ (+ = 1.5 to 5 relative activity over Rd3BB (SEQ ID NO: 13))
B11	− (− = <1.5 relative activity to Rd3BB (SEQ ID NO: 13))

Assay: HTP-analysis of supernatants pretreated with acid (MUGal hydrolysis)
Type: biochemical
Settings: activity of the variant/activity of Rd3BB (SEQ ID NO: 13); challenge at pH 3.7
In short: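 GLA variants were secreted from INVSc1 yeast grown 66-84 h at 30° C. in SD-Ura with 2% glucose; supernatants were mixed with McIlvaine buffer pH 3.3-4.3 and held at 37° C. for 1-3 h. Residual activity on MUGal at pH 4.8 was then measured by fluorescence.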

Molecule	Relative Activity of GLA Variants After Challenge at pH 3.7
B1	+ (+ = 1.5 to 5 relative activity over Rd3BB (SEQ ID NO: 13))
B2	+ (+ = 1.5 to 5 relative activity over Rd3BB (SEQ ID NO: 13))
B3	+++ (+++ = >10 relative activity over Rd3BB (SEQ ID NO: 13))
B4	+ (+ = 1.5 to 5 relative activity over Rd3BB (SEQ ID NO: 13))
B5	+ (+ = 1.5 to 5 relative activity over Rd3BB (SEQ ID NO: 13))
B6	+ (+ = 1.5 to 5 relative activity over Rd3BB (SEQ ID NO: 13))
B7	+ (+ = 1.5 to 5 relative activity over Rd3BB (SEQ ID NO: 13))
B8	+ (+ = 1.5 to 5 relative activity over Rd3BB (SEQ ID NO: 13))
B9	++ (++ = >5 to 10 relative activity over Rd3BB (SEQ ID NO: 13))
B10	− (− = <1.5 relative activity to Rd3BB (SEQ ID NO: 13))
B11	+ (+ = 1.5 to 5 relative activity over Rd3BB (SEQ ID NO: 13))

Assay: HTP-analysis of supernatants pretreated with base (MUGal hydrolysis)
Type: biochemical
Settings: activity of the variant/activity of Rd3BB (SEQ ID NO: 13); challenge at pH 9.7
In short: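 GLA variants secreted from yeast INVSc1; culture supernatants pre-incubated with McIlvaine buffer pH 7.0–8.2 or 200 mM bicarbonate pH 9.1–9.7 at 37° C. for 1–18 h. Residual activity: MUGal (4 mM stock) hydrolysis at pH 4.3–4.8, 37° C., 30–180 min, carbonate quench; fluorescence Ex 355/Em 448 nm.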

Molecule	Relative Activity of GLA Variants After Challenge at pH 9.7
B1	++ (++ = >5 to 10 relative activity over Rd3BB (SEQ ID NO: 13))
B2	+ (+ = 1.5 to 5 relative activity over Rd3BB (SEQ ID NO: 13))
B3	+ (+ = 1.5 to 5 relative activity over Rd3BB (SEQ ID NO: 13))
B4	++ (++ = >5 to 10 relative activity over Rd3BB (SEQ ID NO: 13))
B5	++ (++ = >5 to 10 relative activity over Rd3BB (SEQ ID NO: 13))
B6	+ (+ = 1.5 to 5 relative activity over Rd3BB (SEQ ID NO: 13))
B7	++ (++ = >5 to 10 relative activity over Rd3BB (SEQ ID NO: 13))
B8	++ (++ = >5 to 10 relative activity over Rd3BB (SEQ ID NO: 13))
B9	++ (++ = >5 to 10 relative activity over Rd3BB (SEQ ID NO: 13))
B10	+ (+ = 1.5 to 5 relative activity over Rd3BB (SEQ ID NO: 13))
B11	+ (+ = 1.5 to 5 relative activity over Rd3BB (SEQ ID NO: 13))
